Measured values taken from paper PMC9054930 (RSC Advances, 2020).

Target: alpha fetal protein (AFP) (Homo sapiens, UniProt P02771)
Assay: ELISA

Sequence of alpha fetal protein (AFP) (P02771 19-609): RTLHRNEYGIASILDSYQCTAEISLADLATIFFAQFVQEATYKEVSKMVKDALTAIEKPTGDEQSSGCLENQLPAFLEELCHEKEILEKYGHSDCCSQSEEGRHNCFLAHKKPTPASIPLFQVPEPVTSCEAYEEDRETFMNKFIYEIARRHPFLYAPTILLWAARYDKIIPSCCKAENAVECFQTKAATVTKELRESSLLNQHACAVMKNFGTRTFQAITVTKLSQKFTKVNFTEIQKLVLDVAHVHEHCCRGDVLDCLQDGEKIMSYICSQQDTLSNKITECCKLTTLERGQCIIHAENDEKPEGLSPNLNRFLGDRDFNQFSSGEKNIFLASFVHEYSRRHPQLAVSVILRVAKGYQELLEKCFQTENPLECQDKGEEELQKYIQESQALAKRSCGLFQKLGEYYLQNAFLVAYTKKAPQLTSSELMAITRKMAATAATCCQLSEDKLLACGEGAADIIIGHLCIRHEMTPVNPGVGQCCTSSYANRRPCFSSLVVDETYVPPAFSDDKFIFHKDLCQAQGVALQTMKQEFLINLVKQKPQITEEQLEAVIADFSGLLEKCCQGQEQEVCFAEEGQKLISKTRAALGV

Binder | binding result
anti-AFP nanobody A2, phage-displayed (VHH) VHH: QVQLVESGGGLVQAGGSLGLSCAASGLGFSIVAGGWFRQAPGKERELVAAIGTGTGDINYGDSVKGRFTISSDSAKNTVYLQMNSLKPEDTAVYFCATTERYYTGSYDSRARPQSYGYWGQGTQVTVSS | binds
anti-AFP nanobody A1, phage-displayed (VHH) VHH: QVQLVESGGGLVQSGGSLRLSCAASMRGFRIVAGGWYRQSPGKQRELVADINYQDDTNYGDFVKGRFTISRDSAKNTLYLQMNSLKPEDTAVYYCSALSVIGNEFWGQGTQVTVSS | binds
